Molecular target: the molecule itself
Test: non-reducing vs reducing SDS PAGE, subunit self-association (disulfide cross-link)
Procedure: In order to observe the disulfide bonding of lysine decarboxylase mutant strain, the protein sizes when reducing power was applied and not applied to wild type lysine decarboxylase LdcI (SEQ ID NO: 15) and the mutant strain wherein phenylalanine at position 14 is substituted with cysteine, and lysine at position 44 is substituted with cysteine (F14C/K44C, SEQ ID NO: 6) were measured with SDS PAGE. Such a measurement can confirm whether a shared bond is formed between sulfur elements in a form —S—S— wherein two SH groups added to the mutant strain are producing in oxidation. In a reducing SDS PAGE, reducing power is applied to both of the wild type and the mutant strain to break all disulfides where bonding is possible, and then the sizes are observed, and in non-reducing SDS PAGE, it was observed whether disulfide bond is formed.

B1: lysine decarboxylase LdcI mutant strain wherein phenylalanine at position 14 is substituted with cysteine, and lysine at position 44 is substituted with … (enzyme)
chain: MNVIAILNHMGVYCKEEPIRELHRALERLNFQIVYPNDRDDLLCLIENNARLCGVIFDWDKYNLELCEEISKMNENLPLYAFANTYSTLDVSLNDLRLQISFFEYALGAAEDIANKIKQTTDEYINTILPPLTKALFKYVREGKYTFCTPGHMGGTAFQKSPVGSLFYDFFGPNTMKSDISISVSELGSLLDHSGPHKEAEQYIARVFNADRSYMVTNGTSTANKIVGMYSAPAGSTILIDRNCHKSLTHLMMMSDVTPIYFRPTRNAYGILGGIPQSEFQHATIAKRVKETPNATWPVHAVITNSTYDGLLYNTDFIKKTLDVKSIHFDSAWVPYTNFSPIYEGKCGMSGGRVEGKVIYETQSTHKLLAAFSQASMIHVKGDVNEETFNEAYMMHTTTSPHYGIVASTETAAAMMKGNAGKRLINGSIERAIKFRKEIKRLRTESDGWFFDVWQPDHIDTTECWPLRSDSTWHGFKNIDNEHMYLDPIKVTLLTPGMEKDGTMSDFGIPASIVAKYLDEHGIVVEKTGPYNLLFLFSIGIDKTKALSLLRALTDFKRAFDLNLRVKNMLPSLYREDPEFYENMRIQELAQNIHKLIVHHNLPDLMYRAFEVLPTMVMTPYAAFQKELHGMTEEVYLDEMVGRINANMILPYPPGVPLVMPGEMITEESRPVLEFLQMLCEIGAHYPGFETDIHGAYRQADGRYTVKVLKEESKK
modifications: disulfide bond between the introduced cysteines (positions 14 and 44) of neighbouring subunits
notes: Purified enzyme; also called F14C/K44C; F14C/K44C mutant strain
Q: Does B1 bind?
A: binds

— US20180291362A1 (SEOUL NATIONAL UNIVERSITY R AND DB FOUNDATION, published 2018)
